Target: gasp1_human GPRASP1 (UniProt Q5JY77)
Sequence (Q5JY77 whole entry): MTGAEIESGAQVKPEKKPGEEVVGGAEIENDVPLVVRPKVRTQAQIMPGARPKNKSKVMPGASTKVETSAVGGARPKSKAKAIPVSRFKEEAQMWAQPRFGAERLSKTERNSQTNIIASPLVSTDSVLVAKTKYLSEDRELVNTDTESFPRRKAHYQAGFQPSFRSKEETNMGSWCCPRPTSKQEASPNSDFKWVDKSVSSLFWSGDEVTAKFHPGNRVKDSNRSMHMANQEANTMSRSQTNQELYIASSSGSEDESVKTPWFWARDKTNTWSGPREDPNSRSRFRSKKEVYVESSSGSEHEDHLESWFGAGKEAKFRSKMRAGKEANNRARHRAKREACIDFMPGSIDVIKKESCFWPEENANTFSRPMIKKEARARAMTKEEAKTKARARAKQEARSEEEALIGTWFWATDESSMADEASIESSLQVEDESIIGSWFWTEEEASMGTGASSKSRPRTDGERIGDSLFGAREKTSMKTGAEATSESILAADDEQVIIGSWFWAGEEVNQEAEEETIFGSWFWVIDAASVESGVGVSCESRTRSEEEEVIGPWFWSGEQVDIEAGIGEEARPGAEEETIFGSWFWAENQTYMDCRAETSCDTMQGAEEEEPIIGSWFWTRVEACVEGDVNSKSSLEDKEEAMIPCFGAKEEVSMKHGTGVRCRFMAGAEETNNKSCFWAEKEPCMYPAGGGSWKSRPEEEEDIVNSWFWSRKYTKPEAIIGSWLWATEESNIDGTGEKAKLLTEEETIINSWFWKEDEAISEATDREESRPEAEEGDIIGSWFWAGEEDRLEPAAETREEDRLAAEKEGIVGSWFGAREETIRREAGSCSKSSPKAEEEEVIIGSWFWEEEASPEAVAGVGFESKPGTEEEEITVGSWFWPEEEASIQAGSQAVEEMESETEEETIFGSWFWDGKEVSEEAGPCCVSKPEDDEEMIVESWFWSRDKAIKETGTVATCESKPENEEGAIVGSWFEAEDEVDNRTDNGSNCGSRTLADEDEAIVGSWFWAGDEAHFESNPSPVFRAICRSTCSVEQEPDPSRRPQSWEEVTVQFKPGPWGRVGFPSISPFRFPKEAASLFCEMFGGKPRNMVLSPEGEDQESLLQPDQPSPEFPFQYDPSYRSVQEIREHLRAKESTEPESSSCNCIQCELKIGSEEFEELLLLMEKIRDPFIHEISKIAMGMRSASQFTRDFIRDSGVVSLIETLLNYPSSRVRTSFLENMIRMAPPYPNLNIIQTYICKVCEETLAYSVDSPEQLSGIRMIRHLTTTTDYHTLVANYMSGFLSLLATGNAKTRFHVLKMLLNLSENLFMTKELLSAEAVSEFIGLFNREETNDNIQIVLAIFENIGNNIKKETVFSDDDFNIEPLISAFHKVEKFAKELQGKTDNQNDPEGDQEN

Sequence of Beta-1 adrenergic receptor (Homo sapiens), P08588 F383A;R384A (P08588 whole entry F383A/R384A): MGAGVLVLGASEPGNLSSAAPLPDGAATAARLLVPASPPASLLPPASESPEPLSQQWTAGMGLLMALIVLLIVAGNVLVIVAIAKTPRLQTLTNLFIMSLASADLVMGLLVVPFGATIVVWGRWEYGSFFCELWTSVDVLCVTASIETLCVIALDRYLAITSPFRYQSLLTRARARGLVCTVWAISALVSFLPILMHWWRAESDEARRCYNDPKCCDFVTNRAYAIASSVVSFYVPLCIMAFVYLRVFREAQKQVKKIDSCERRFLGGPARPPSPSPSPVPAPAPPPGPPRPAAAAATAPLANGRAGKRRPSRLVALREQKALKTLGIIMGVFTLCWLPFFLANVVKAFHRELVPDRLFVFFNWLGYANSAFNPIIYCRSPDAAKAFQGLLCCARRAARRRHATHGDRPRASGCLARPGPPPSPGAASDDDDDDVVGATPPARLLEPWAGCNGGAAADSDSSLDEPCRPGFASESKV

Beta-1 adrenergic receptor (Homo sapiens), P08588 F383A;R384A
effect of a mutation on the interaction: decreasing interaction

Reference: IntAct's records for PubMed 15086532
